The record followed here is article PMC4283936.

B1: RD25 (dominant SELEX sequence) (dsDNA)
DNA 1: CTGGAGCATATGGTCCAGTTAGTACCTCACAGCACTTTCAGAGCTTTCATATGCCTGCACC
DNA 2: GGTGCAGGCATATGAAAGCTCTGAAAGTGCTGTGAGGTACTAACTGGACCATATGCTCCAG
B2: espA -246 (dsDNA)
DNA 1: CTTGGGATCGCGCCGCCTACACGGCGGTTGGC
DNA 2: GCCAACCGCCGTGTAGGCGGCGCGATCCCAAG
B3: PE8 (dsDNA)
DNA 1: CAGATCACACCGCCATGTCAGCCGCCAA
DNA 2: TTGGCGGCTGACATGGCGGTGTGATCTG
B4: devR -155 (dsDNA)
DNA 1: GTGCGTGCCGTCATCTGGCCGCCAACGCAA
DNA 2: TTGCGTTGGCGGCCAGATGACGGCACGCAC
B5: pks3 -653 (dsDNA)
DNA 1: GGCGGCCCACTGCGCCTGCACCGCCGTGTTGG
DNA 2: CCAACACGGCGGTGCAGGCGCAGTGGGCCGCC
B6: phoP -42 (dsDNA)
DNA 1: ACGAGCTTTCAGGAATTACACAATGACTGTG
DNA 2: CACAGTCATTGTGTAATTCCTGAAAGCTCGT
B7: fadD9 (dsDNA)
DNA 1: CATCTCACAGCCGATCAGCAGCAGGCTT
DNA 2: AAGCCTGCTGCTGATCGGCTGTGAGATG
B8: PPE19 (dsDNA)
DNA 1: CCGTTCTCCGGACAATCACGGCCCGACC
DNA 2: GGTCGGGCCGTGATTGTCCGGAGAACGG
B9: nuoA -63 (dsDNA)
DNA 1: GTCACGGCAGCCCGGTCACCGCCCGGCC
DNA 2: GGCCGGGCGGTGACCGGGCTGCCGTGAC
B10: lipF -214 (dsDNA)
DNA 1: GGGCTCCCATCGAGATCACCGAAAGCGG
DNA 2: CCGCTTTCGGTGATCTCGATGGGAGCCC
B11: ptrBa -244 (dsDNA)
DNA 1: ATCTTCACACCGGACTCGTCGCGGTACT
DNA 2: AGTACCGCGACGAGTCCGGTGTGAAGAT
B12: nuoA -52 (dsDNA)
DNA 1: CCGGTCACCGCCCGGCCGCCGCGCTGGC
DNA 2: GCCAGCGCGGCGGCCGGGCGGTGACCGG
B13: Rv3134c (dsDNA)
DNA 1: GCCATTTCTGGGACTTTGCTGTGAAAAGCTG
DNA 2: CAGCTTTTCACAGCAAAGTCCCAGAAATGGC
B14: fbpA (dsDNA)
DNA 1: ATACTGACAGCAAGATCACAATTGAGCC
DNA 2: GGCTCAATTGTGATCTTGCTGTCAGTAT
B15: Rv3143 (dsDNA)
DNA 1: AACCGCACAGCCCTCTAACCACTGCTCG
DNA 2: CGAGCAGTGGTTAGAGGGCTGTGCGGTT
B16: devR -146 (dsDNA)
DNA 1: CGTCATCTGGCCGCCAACGCAAAGCCGGGTCA
DNA 2: TGACCCGGCTTTGCGTTGGCGGCCAGATGACG
B17: Rv1517 (dsDNA)
DNA 1: CATTTTTCAGCAATTTCTCAGTAACGCT
DNA 2: AGCGTTACTGAGAAATTGCTGAAAAATG
B18: devR -116 (dsDNA)
DNA 1: CAGCTGTTCGTCGCGGACTCACACTCCGCGCAC
DNA 2: GTGCGCGGAGTGTGAGTCCGCGACGAACAGCTG
B19: wbbL2 (dsDNA)
DNA 1: TGGATCGCTGCCGATACACCGCCGATTT
DNA 2: AAATCGGCGGTGTATCGGCAGCGATCCA
B20: RD6m1 (dsDNA)
DNA 1: AGTACCGGCGCTGACTTTCACAGCTTTCAT
DNA 2: ATGAAAGCTGTGAAAGTCAGCGCCGGTACT
B21: WB6 D1 (dsDNA)
DNA 1: ATACACAGCTGATTAACAGGATCTATGCC
DNA 2: GGCATAGATCCTGTTAATCAGCTGTGTAT
B22: WB6 D5 (dsDNA)
DNA 1: AGATACACAGCTGATTAACAGGATCTA
DNA 2: TAGATCCTGTTAATCAGCTGTGTATCT
B23: RD6m23 (dsDNA)
DNA 1: AGTACCTCACAGCAATTTCACAGCTTTCAT
DNA 2: ATGAAAGCTGTGAAATTGCTGTGAGGTACT

For the first data set, the target named is His-PhoP (Mycobacterium tuberculosis, UniProt P71814 1-247). The experiment in a line: SELEX.
In the case of B1, the binding result is recorded as “binds”.

Another data set addresses T1, PhoP (Mycobacterium tuberculosis, UniProt P71814 1-247). The experiment in a line: ITC. A general note: Isothermal titration calorimetry measures the heat released or taken up as one component is titrated into another.
As for B2, the binding result is listed as “no binding”.
The same measure, in the same setting: the value for B3 was “no binding”; that for B4 was “no binding”.
Same read-out and setting: the value for B5 was “no binding”.
In the case of B6, the binding result is listed as “no binding”.
By Kd is commonly meant a measure of binding affinity in units of concentration. B7 gave a Kd of 82 ± 4 nM.
For B8, the binding result was “no binding”.
The same measure, in the same setting: the value for B9 was “no binding”; that for B10 was “no binding”.
Turning to B11, the binding result was “no binding”.
For the molecule B12, the binding result was “no binding”.
B13 displayed a Kd of 61.7 ± 5.3 nM.
Still for that read-out and setting: for B14 the value was 56.5 ± 2.6 nM.
Regarding B15, the binding result was “no binding”.
With B16, the binding result is reported as “no binding”.
On the same count and under the same terms, for B17 the value was “no binding”.
Still for that read-out and setting: the value for B18 was “no binding”; that for B19 was “no binding”.

In another data set the target is T1, PhoP. The experiment in a line: ITC. This is another data set of the same source.
On to B20, for which the binding signal is ~40 fold lower affinity than RD6.

A further data set has as its target T1, PhoP. Nature of the data set: competition.
Consider B21, for which the binding result is “binds”.
Still for that read-out and setting: the value for B22 was “binds”.

A further data set deals with T1, PhoP. The experiment in a line: ITC. The source holds these as a separate data set.
As for B23, the binding result was “binds”.
